Measurements published in patent US20070036793A1, “Methods for use of an lkb1/strad7mo25 complex” (priority 2003, published 2007).

Molecular target: T1, LKB1 (Mus musculus, UniProt Q9WTK7)
T1 construct: Constructs expressing the full length wild type and kinase dead mouse LKB1 have been described previously; made in house; host or cells: 293 cells, transiently transfected
T1 sequence (Q9WTK7 1-433 limits assumed): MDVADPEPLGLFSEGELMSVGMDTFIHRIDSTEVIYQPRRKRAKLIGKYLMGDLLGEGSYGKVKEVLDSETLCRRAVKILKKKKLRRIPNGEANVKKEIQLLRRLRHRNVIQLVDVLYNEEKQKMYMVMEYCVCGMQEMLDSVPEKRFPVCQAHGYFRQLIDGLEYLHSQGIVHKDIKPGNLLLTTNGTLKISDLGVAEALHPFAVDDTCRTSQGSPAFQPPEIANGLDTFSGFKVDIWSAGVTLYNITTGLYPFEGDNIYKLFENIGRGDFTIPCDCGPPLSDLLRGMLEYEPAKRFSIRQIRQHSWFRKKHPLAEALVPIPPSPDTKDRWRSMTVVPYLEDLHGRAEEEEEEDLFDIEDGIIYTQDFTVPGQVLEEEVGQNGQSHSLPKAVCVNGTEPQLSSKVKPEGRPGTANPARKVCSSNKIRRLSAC
T1 sequence (Q7RTN6 1-431 partner): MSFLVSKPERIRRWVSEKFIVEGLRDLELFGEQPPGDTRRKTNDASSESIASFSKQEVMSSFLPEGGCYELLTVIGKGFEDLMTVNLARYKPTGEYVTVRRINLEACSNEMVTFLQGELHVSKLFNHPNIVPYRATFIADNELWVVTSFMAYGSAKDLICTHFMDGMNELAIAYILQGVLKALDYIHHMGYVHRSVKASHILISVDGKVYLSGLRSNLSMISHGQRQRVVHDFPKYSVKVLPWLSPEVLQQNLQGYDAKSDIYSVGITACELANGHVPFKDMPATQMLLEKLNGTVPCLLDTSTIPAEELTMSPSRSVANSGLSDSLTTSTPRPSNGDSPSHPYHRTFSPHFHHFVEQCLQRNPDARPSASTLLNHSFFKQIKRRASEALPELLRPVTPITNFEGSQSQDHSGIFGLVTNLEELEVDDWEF
T1 sequence (Q9Y376 1-341 partner): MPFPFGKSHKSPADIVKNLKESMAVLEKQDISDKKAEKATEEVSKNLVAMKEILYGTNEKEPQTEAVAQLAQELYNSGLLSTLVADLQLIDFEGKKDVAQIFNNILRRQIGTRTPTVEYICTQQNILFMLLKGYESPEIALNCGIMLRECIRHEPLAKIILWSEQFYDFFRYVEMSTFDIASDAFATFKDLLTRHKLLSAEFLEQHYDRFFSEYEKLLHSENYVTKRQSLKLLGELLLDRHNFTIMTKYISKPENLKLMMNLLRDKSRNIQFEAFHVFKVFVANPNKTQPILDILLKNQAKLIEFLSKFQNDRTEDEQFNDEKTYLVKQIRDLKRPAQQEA
Experiment: LKB1 autophosphorylation and phosphorylation of MBP after co-expression with STRAD and MO25 isoforms in 293 cells
Assay type: biochemical
Conditions: GST-LKB1 co-expressed with STRAD and MO25 isoforms in 293 cells
Protocol: FIG. 9. Activation of LKB1 by association with STRAD and MO25 Isoforms. 293 cells were transfected with constructs encoding GST-LKB1 in the presence or absence of constructs encoding the indicated isoforms of STRAD and MO25. 36 h post-transfection, GST-LKB1 was affinity purified and assayed for autophosphorylation and transphosphorylation of MBP as described in the materials and methods. The reactions were electrophoresed and the gel autoradiographed (top panel). Phosphorylation of MBP by LKB1 at Thr65 was also monitored by immunoblotting with a phosphospecific antibody (T65-P), which recognises MBP phosphorylated by LKB1 at this residue. Each reaction was also immunoblotted with the appropriate epitope tag antibodies to monitor levels of LKB1, STRAD and MO25 isoforms. Similar results were obtained in 3 separate experiments.
LKB1 autophosphorylation and phosphorylation of MBP. […] After incubation for 40 min at 30° C., the reactions were terminated by the addition of 8 μl of sample Buffer. 30 μl was electrophoresed on SDS-polyacrylamide gels, which were then dried and analysed by autoradiography to quantify LKB1 autophosphorylation, MBP and STRADα phosphorylation. 5 μl of each reaction was diluted in 45 μl of 1× SDS Sample Buffer. […]

B1: STRADα: STE20-related pseudokinase (STe20-Related ADaptor protein-α) that binds and activates LKB1 (protein, UniProt Q7RTN6 1-431, looked up)
STE20-related kinase adapter …: MSFLVSKPERIRRWVSEKFIVEGLRDLELFGEQPPGDTRRKTNDASSESIASFSKQEVMSSFLPEGGCYELLTVIGKGFEDLMTVNLARYKPTGEYVTVRRINLEACSNEMVTFLQGELHVSKLFNHPNIVPYRATFIADNELWVVTSFMAYGSAKDLICTHFMDGMNELAIAYILQGVLKALDYIHHMGYVHRSVKASHILISVDGKVYLSGLRSNLSMISHGQRQRVVHDFPKYSVKVLPWLSPEVLQQNLQGYDAKSDIYSVGITACELANGHVPFKDMPATQMLLEKLNGTVPCLLDTSTIPAEELTMSPSRSVANSGLSDSLTTSTPRPSNGDSPSHPYHRTFSPHFHHFVEQCLQRNPDARPSASTLLNHSFFKQIKRRASEALPELLRPVTPITNFEGSQSQDHSGIFGLVTNLEELEVDDWEF
increase in LKB1 activity relative to LKB1 expressed alone: 4 fold
